Test results taken from PMC5384453, “A multi-functional PEGylated gold(III) compound: potent anti-cancer properties and self-assembly into nanostructures for drug co-delivery” (Chemical Science, 2016).

How the values were obtained:
Format in all cases: physicochemical
[1] = Transmission electron microscopy of nanostructures; conditions: self-assembled in PBS
Description: (§1) On the other hand, the almost neutral zeta potentials of the nanostructures of 1 and 2 validated the presence of PEG pendant in the shell of the nanostructures. The identity of gold species in the core of the nanostructures was supported by the good contrast of the core in the TEM images (Fig. 1c and S3a ^†) and energy-dispersive X-ray (EDX) spectra (Fig. 1f).
The gold content in NC1 was confirmed by EDX (Fig. 1g).

[2] = Dynamic light scattering of nanostructures in PBS
Protocol: as §1
The gold content in NC1 was confirmed by EDX (Fig. 1g). […]
fetal bovine serum, ʟ-glutamine (2 mM) and penicillin/streptomycin (100 U/mL). […]
Physical measurements and instrumentation. 1H NMR spectra were recorded with a Bruker AVANCE 400 (400 MHz) or DPX-300 (300 MHz) Fourier transform NMR spectrometer at ambient temperature with tetramethylsilane (Me4Si) as an internal reference. MALDI-TOF mass spectra were recorded on a ABI4800 MALDI
TOF/TOF™ Analyzer using α-cyano-4-hydroxycinnamic acid with sodium trifluoroacetate as the matrix. Positive ion electrospray (ESI) mass spectra and ultra-performance liquid chromatography coupled quadrupole-time-of-flight mass spectrometry (UPLC-QTOF-MS) were recorded on a Waters Micromass Q-Tof
Premier quadrupole time-of-flight tandem mass spectrometer. Inductively coupled plasma mass spectra (ICP-MS) were recorded on Agilent 7500a inductively coupled plasma mass spectrometer (Agilent Technologies, CA, U.S.A.). […]

[3] = Zeta potential measurement of nanostructures in PBS
Description: On the other hand, the almost neutral zeta potentials of the nanostructures of 1 and 2 validated the presence of PEG pendant in the shell of the nanostructures. The identity of gold species in the core of the nanostructures was supported by the good contrast of the core in the TEM images (Fig. 1c and S3a ^†) and energy-dispersive X-ray (EDX) spectra (Fig. 1f). […]
(MIHA), human normal liver cells (L02) and human normal gliocyte cells (CHEM-5) were maintained in Dulbecco’s modified Eagle’s medium with 10 vol% fetal bovine serum, ʟ-glutamine (2 mM) and penicillin/streptomycin (100 U/mL). […]
TOF/TOF™ Analyzer using α-cyano-4-hydroxycinnamic acid with sodium trifluoroacetate as the matrix. […]
Premier quadrupole time-of-flight tandem mass spectrometer. […]
Ultra performance […]
liquid chromatography (UPLC) measurements were performed on a Waters
ACQUITY UPLC H-Class System equipped with a photodiode array for detection.
Elemental analyses were performed on the Carlo Erba 1106 elemental analyzer at the Institute of Chemistry, Chinese Academy of Sciences, Beijing, China. […]
Dynamic light scattering (DLS) and zeta potential measurements were performed

In the case of “[Au(TPP–COO–PEG5000–OCH3)]Cl [Compound 1]”, the “diameter of nanostructures (TEM)” value [1] is reported as “ca. 120 nm”, the “Intensity-averaged signals from dynamic light scattering (hydrodynamic diameter)” value [2] is reported as 120.8 ± 7.2 nm and the Zeta potential [3] is reported as “–0.1 ± 1.6 mV”.

In the case of “[Au(TPP–CONH–PEG5000–OCH3)]Cl [Compound 2]”, the “diameter of nanostructures (TEM)” value [1] is reported as about 200 nm, the “Intensity-averaged signals from dynamic light scattering (hydrodynamic diameter)” value [2] is reported as 177.1 ± 81.2 nm and the Zeta potential [3] is reported as “–0.7 ± 4.2 mV”.
